Target: T1, FcγRIIIaV (human, UniProt P08637 17-208)
T1 construct: extracellular domain
Assay: SPR (Biacore), antibody captured, FcγR as analyte, 1:1 Langmuir fit

T1 sequence (P08637 other isoform, or with tags, fused parts or gaps): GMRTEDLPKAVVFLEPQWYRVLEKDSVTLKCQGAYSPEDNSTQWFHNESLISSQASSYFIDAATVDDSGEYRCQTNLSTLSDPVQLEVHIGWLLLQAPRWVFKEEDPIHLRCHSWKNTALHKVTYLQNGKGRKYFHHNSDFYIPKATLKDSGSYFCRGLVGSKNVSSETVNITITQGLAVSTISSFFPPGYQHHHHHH

Binder	Kd
HI076-L3-6 (antibody, human IgG1, kappa, heterodimerized anti-EREG antibody: altered H240-Hl076 chain (Gly/Ser peptide in loop) with H240-Kn125 and L73-k0; also called Hl076-L3-6) heavy 1: QDQLVQSGAEVKKPGASVKVSCKASGFNIKDTYIQWVRQAPGQGLEWMGRIDPLRKQTKYREKFEGRVTITADTSTNTAYMELSSLRSEDTAVYYCVRSGREFDYWGQGTLVTVSSASTKGPSVFPLAPSSKSTSGGTAALGCLVKDYFPEPVTVSWNSGALTSGVHTFPAVLQSSGLYSLSSVVTVPSSSLGTQTYICNVNHKPSNTKVDKKVEPKSCDKTHTCPPCPAPELLGGPSVFLFPPKPKDTLMISRTPEVTCVVVDVSHEEPEVKFNWYVDGVEVHNAKTKPREEQYNSTGGSGGSYRVVSVLTVLHQDWLNGKEYKCKVSNDALPMPIEETISKAKGQPREPQVYTLPPSRCELTKNQVSLSCAVKGFYPSDIAVEWESNGQPENNYKTTPPVLDSDGSFFLVSKLTVDKSRWQQGNVFSCSVMHEALHNHYTQKSLSLSP heavy 2: QDQLVQSGAEVKKPGASVKVSCKASGFNIKDTYIQWVRQAPGQGLEWMGRIDPLRKQTKYREKFEGRVTITADTSTNTAYMELSSLRSEDTAVYYCVRSGREFDYWGQGTLVTVSSASTKGPSVFPLAPSSKSTSGGTAALGCLVKDYFPEPVTVSWNSGALTSGVHTFPAVLQSSGLYSLSSVVTVPSSSLGTQTYICNVNHKPSNTKVDKKVEPKSCDKTHTCPPCPAPEYQWGPMVFLFPPKPKDTLMISRTPEVTCVVVDVSDEEPEVKFNWYVDGVEVHNAKTKPREEQYNATYRVVSVLTVLHQDWLNGKEYKCKVSNKALPAPIEKTISKAKGQPREPQVCTLPPSRDELTKNQVSLWCLVKGFYPSDIAVEWESNGQPENNYKTTPPVLDSDGSFFLYSKLTVDKSRWQQGNVFSCSVMHEALHNHYTQKSLSLSP light: DIQMTQSPSSLSASVGDRVTITCRASQDIHKYIAWYQQKPGQAPRLLIQYTSTLQPGVPSRFSGSGSGTDYTFTISSLQPEDIATYYCLQYEQLRTFGGGTKVEIKRTVAAPSVFIFPPSDEQLKSGTASVVCLLNNFYPREAKVQWKVDNALQSGNSQESVTEQDSKDSTYSLSSTLTLSKADYEKHKVYACEVTHQGLSSPVTKSFNRGEC	7.2 nM
HI076-L3-9 (antibody, human IgG1, kappa, heterodimerized anti-EREG antibody: altered H240-Hl076 chain (Gly/Ser peptide in loop) with H240-Kn125 and L73-k0; also called Hl076-L3-9) heavy 1: QDQLVQSGAEVKKPGASVKVSCKASGFNIKDTYIQWVRQAPGQGLEWMGRIDPLRKQTKYREKFEGRVTITADTSTNTAYMELSSLRSEDTAVYYCVRSGREFDYWGQGTLVTVSSASTKGPSVFPLAPSSKSTSGGTAALGCLVKDYFPEPVTVSWNSGALTSGVHTFPAVLQSSGLYSLSSVVTVPSSSLGTQTYICNVNHKPSNTKVDKKVEPKSCDKTHTCPPCPAPELLGGPSVFLFPPKPKDTLMISRTPEVTCVVVDVSHEEPEVKFNWYVDGVEVHNAKTKPREEQYNSTGGSGGSGGSYRVVSVLTVLHQDWLNGKEYKCKVSNDALPMPIEETISKAKGQPREPQVYTLPPSRCELTKNQVSLSCAVKGFYPSDIAVEWESNGQPENNYKTTPPVLDSDGSFFLVSKLTVDKSRWQQGNVFSCSVMHEALHNHYTQKSLSLSP heavy 2: QDQLVQSGAEVKKPGASVKVSCKASGFNIKDTYIQWVRQAPGQGLEWMGRIDPLRKQTKYREKFEGRVTITADTSTNTAYMELSSLRSEDTAVYYCVRSGREFDYWGQGTLVTVSSASTKGPSVFPLAPSSKSTSGGTAALGCLVKDYFPEPVTVSWNSGALTSGVHTFPAVLQSSGLYSLSSVVTVPSSSLGTQTYICNVNHKPSNTKVDKKVEPKSCDKTHTCPPCPAPEYQWGPMVFLFPPKPKDTLMISRTPEVTCVVVDVSDEEPEVKFNWYVDGVEVHNAKTKPREEQYNATYRVVSVLTVLHQDWLNGKEYKCKVSNKALPAPIEKTISKAKGQPREPQVCTLPPSRDELTKNQVSLWCLVKGFYPSDIAVEWESNGQPENNYKTTPPVLDSDGSFFLYSKLTVDKSRWQQGNVFSCSVMHEALHNHYTQKSLSLSP light: DIQMTQSPSSLSASVGDRVTITCRASQDIHKYIAWYQQKPGQAPRLLIQYTSTLQPGVPSRFSGSGSGTDYTFTISSLQPEDIATYYCLQYEQLRTFGGGTKVEIKRTVAAPSVFIFPPSDEQLKSGTASVVCLLNNFYPREAKVQWKVDNALQSGNSQESVTEQDSKDSTYSLSSTLTLSKADYEKHKVYACEVTHQGLSSPVTKSFNRGEC	7.3 nM

— patent US20260167699A1 (Chugai, published 2026)
